# The supplement of paper PMC7877785
# ± gives the uncertainty stated by the source.
# Assay: self-splicing fitness, log relative to wild type (ln ratio); higher = more splicing; Tetrahymena group I intron in knt gene, E. coli kanamycin selection, DiMSum; sequences stand for … in CUCUCU…GGAGGGAAAAGUUAUCAGGCAUGCACCUGGUAGCUAGUCUUUAAACCAAUAGAUUGCAUCGGUUUAAAAGGCAAGACCGUCAAAUUGCGGGAAAGGGGUCAACAGCCGUUCAGUACCAAGUCUCAGGGGAAACUUUGAGAUGGCCUUGCAAAGGGUAUGGUAAUAAGCUGACGGACAUGGUCCUAACCACGCAGCCAAGUCCUAAGUCAACAGAUCUUCUGUUGAUAUGGAUGCAGUUCACAGACUAAAUGUCGGUCGGGGAAGAUGUAUUCUUCUCAUAAGAUAUAGUCGGACCUCUCCUUAAUGGGAGCUAGCGGAUGAAGUGAUGCAACACUGGAGCCGCUGGGAACUAAUUUGUAUGCGAAAGUAUAUUGAUUAGUUUUGGAGUACUCGUGGUCG
# In short: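 Six replicate transformations of E. coli BL21(DE3) with a pET-22b(+) library were grown overnight at 37°C or 30°C. The library randomised all eight P1ex-region intron nucleotides, the intron lying in the knt kanamycin-resistance gene, and plates were LB agar with or without 25 μg/mL kanamycin plus 100 μg/mL carbenicillin, 50 μM IPTG and 0.2% rhamnose. Pooled colonies were amplicon-sequenced on an Illumina HiSeq 2500, and fitness is the DiMSum error-weighted combination of wild-type-normalised replicate fold changes, kanamycin versus none.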
Sequence,self-splicing fitness (ln) (30 °C),self-splicing fitness (ln) (37 °C)
AAAUAGCAAUAUUACGGCUU,0.203 ± 0.1,0.139 ± 0.13
AAAUAGCAAUAUUACGGUAG,-3.63 ± 0.22,-2.62 ± 0.23
AAAUAGCAAUAUUACGGUUA,-0.483 ± 0.077,-0.546 ± 0.08
AAAUAGCAAUAUUACGUAGA,-3.32 ± 0.17,-0.484 ± 0.1
AAAUAGCAAUAUUACGUCUG,-1.3 ± 0.068,-0.843 ± 0.088
AAAUAGCAAUAUUACGUGAG,-1.19 ± 0.078,-0.609 ± 0.11
AACAAGCAAUAUUACGACUG,-0.961 ± 0.099,-0.786 ± 0.11
AACAAGCAAUAUUACGACUU,-0.0432 ± 0.046,0.207 ± 0.064
AACAAGCAAUAUUACGAGCA,-1.22 ± 0.099,-0.153 ± 0.11
AACAAGCAAUAUUACGAGGU,-4.04 ± 0.21,-3.54 ± 0.17
AACAAGCAAUAUUACGAGUA,-1.5 ± 0.078,-0.465 ± 0.08
AACAAGCAAUAUUACGCAAA,-2.08 ± 0.17,0.267 ± 0.13
AACAAGCAAUAUUACGCAGA,-2.2 ± 0.11,-0.924 ± 0.095
AACAAGCAAUAUUACGCAUA,-1.8 ± 0.12,-1.04 ± 0.13
AACAAGCAAUAUUACGCCGC,-3.05 ± 0.31,-1.94 ± 0.36
AACAAGCAAUAUUACGCCUC,-1.75 ± 0.14,-0.437 ± 0.15
AACAAGCAAUAUUACGCGCG,-0.623 ± 0.093,0.651 ± 0.11
AACAAGCAAUAUUACGCUAA,-2.12 ± 0.11,-0.523 ± 0.091
AACAAGCAAUAUUACGGCAG,-1.53 ± 0.11,-1.4 ± 0.13
AACAAGCAAUAUUACGGCAU,-0.11 ± 0.057,-0.0731 ± 0.073
AACAAGCAAUAUUACGGGAC,-2.86 ± 0.12,-1.17 ± 0.12
AACAAGCAAUAUUACGGGGC,–,-2.18 ± 0.23
AACAAGCAAUAUUACGUAAA,-2.36 ± 0.09,-1.17 ± 0.098
AACAAGCAAUAUUACGUAGC,-3.1 ± 0.09,-2.07 ± 0.1
AACAAGCAAUAUUACGUCCC,-0.608 ± 0.12,-0.718 ± 0.17
AACAAGCAAUAUUACGUUCG,-2.86 ± 0.1,-1.76 ± 0.13

Sequence,self-splicing fitness (ln) (30 °C),self-splicing fitness (ln) (37 °C)
AACAAGCAAUAUUACGUUUC,-4.46 ± 0.22,-2.95 ± 0.15
AACCAGCAAUAUUACGAACA,-0.809 ± 0.07,0.214 ± 0.07
AACCAGCAAUAUUACGAAGG,-3.19 ± 0.23,-1.8 ± 0.22
AACCAGCAAUAUUACGACCG,-0.744 ± 0.087,-0.237 ± 0.14
AACCAGCAAUAUUACGAGCG,-1.14 ± 0.072,-0.281 ± 0.084
AACCAGCAAUAUUACGCAAC,-2.78 ± 0.13,-0.698 ± 0.11
AACCAGCAAUAUUACGCAAU,-1.86 ± 0.081,-0.25 ± 0.098
AACCAGCAAUAUUACGCAUU,-1.58 ± 0.068,0.096 ± 0.086
AACCAGCAAUAUUACGCCAC,-3.16 ± 0.19,-2.97 ± 0.4
AACCAGCAAUAUUACGCGAC,-2.27 ± 0.14,-1.2 ± 0.12
AACCAGCAAUAUUACGCUAG,-2.62 ± 0.082,-0.715 ± 0.08
AACCAGCAAUAUUACGCUCU,-0.0812 ± 0.054,0.0106 ± 0.07
AACCAGCAAUAUUACGCUGG,-2.8 ± 0.14,-2.25 ± 0.19
AACCAGCAAUAUUACGCUUC,-4.25 ± 0.16,-2.3 ± 0.11
AACCAGCAAUAUUACGGAGG,-1.36 ± 0.076,-0.444 ± 0.12
AACCAGCAAUAUUACGGAUU,-2.07 ± 0.071,-1.08 ± 0.087
AACCAGCAAUAUUACGGCUG,-3.63 ± 0.14,-3.05 ± 0.16
AACCAGCAAUAUUACGGGCA,-0.402 ± 0.041,0.117 ± 0.053
AACCAGCAAUAUUACGGUAG,-1.99 ± 0.058,-1.02 ± 0.066
AACCAGCAAUAUUACGUACC,-0.685 ± 0.08,0.0338 ± 0.11
AACCAGCAAUAUUACGUAGG,-2.67 ± 0.089,-1.79 ± 0.099
AACCAGCAAUAUUACGUAUA,-1.4 ± 0.072,-0.853 ± 0.088
AACCAGCAAUAUUACGUCCC,-0.726 ± 0.13,0.292 ± 0.18
AACCAGCAAUAUUACGUCUU,0.0745 ± 0.044,0.393 ± 0.063
AACCAGCAAUAUUACGUGGA,-2.33 ± 0.093,-1.13 ± 0.08
AACCAGCAAUAUUACGUGGC,-3.06 ± 0.12,-2.99 ± 0.17

Sequence,self-splicing fitness (ln) (30 °C),self-splicing fitness (ln) (37 °C)
AACCAGCAAUAUUACGUGUA,-0.891 ± 0.041,-0.409 ± 0.049
AACCAGCAAUAUUACGUUCC,-2.94 ± 0.17,-0.871 ± 0.14
AACGAGCAAUAUUACGAAAG,-2.83 ± 0.48,-1.43 ± 0.32
AACGAGCAAUAUUACGAAGG,–,-2.3 ± 0.2
AACGAGCAAUAUUACGAAUC,-3.96 ± 0.26,-2.5 ± 0.41
AACGAGCAAUAUUACGACAC,–,-1.46 ± 0.32
AACGAGCAAUAUUACGAGUA,-3.14 ± 0.17,-2.12 ± 0.14
AACGAGCAAUAUUACGCACG,-2.8 ± 0.38,-0.837 ± 0.25
AACGAGCAAUAUUACGCAUA,-2.86 ± 0.38,-1.26 ± 0.35
AACGAGCAAUAUUACGCAUU,-1.24 ± 0.12,-2.9 ± 0.24
AACGAGCAAUAUUACGCGCA,-1.28 ± 0.094,-2.1 ± 0.12
AACGAGCAAUAUUACGCGUA,-2.19 ± 0.19,-1.72 ± 0.18
AACGAGCAAUAUUACGCUGU,-2.67 ± 0.45,-2.99 ± 0.4
AACGAGCAAUAUUACGGAGU,–,-1.74 ± 0.14
AACGAGCAAUAUUACGGCCU,-1.16 ± 0.2,-0.95 ± 0.2
AACGAGCAAUAUUACGGCUA,-1.23 ± 0.15,-0.829 ± 0.18
AACGAGCAAUAUUACGGUAC,–,-1.34 ± 0.22
AACGAGCAAUAUUACGGUCC,–,-1.13 ± 0.31
AACGAGCAAUAUUACGUAAC,-2.83 ± 0.2,-1.83 ± 0.44
AACGAGCAAUAUUACGUACA,-3.11 ± 0.17,-2.19 ± 0.14
AACGAGCAAUAUUACGUAUG,-4.21 ± 0.23,-2.59 ± 0.17
AACGAGCAAUAUUACGUGAC,–,-2.76 ± 0.23
AACGAGCAAUAUUACGUGCC,-3.37 ± 0.27,-1.85 ± 0.3
AACUAGCAAUAUUACGAACU,-0.149 ± 0.088,-0.455 ± 0.098
AACUAGCAAUAUUACGACUA,-0.192 ± 0.2,-1.24 ± 0.15
